Test system: Escherichia coli TOP10
Test: shrunken log2 fold change of peptide-encoding DNA abundance (4.5 h post-induction vs induction); higher = less antimicrobial activity (less host growth inhibition)
Details: time post-induction: 4.5 h; library: site-saturation at positions 5, 18, 19, 20
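Also: peptides expressed intracellularly from a pBAD plasmid library in pooled LB shake-flask culture, induced with 0.3% L-arabinose, DNA abundance read by NGS, three biological replicates, DESeq2 with apeglm shrinkage.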

Sequence	shrunken log2 fold change
RRIRWRPPRLPRPRPRPIMGPRP	0.0656
RRIRERPPRLPRPRPRPTEHPRP	-0.144
RRIRERPPRLPRPRPRPMILPRP	-0.388
RRIRIRPPRLPRPRPRPTVTPRP	-0.303
RRIRLRPPRLPRPRPRPNIWPRP	-0.0307
RRIRFRPPRLPRPRPRPSETPRP	-0.13
RRIRCRPPRLPRPRPRPNWFPRP	-0.201
RRIRTRPPRLPRPRPRPSHLPRP	-0.411
RRIRLRPPRLPRPRPRPYIRPRP	-1.62
RRIRRRPPRLPRPRPRPTIFPRP	0.149
RRIRYRPPRLPRPRPRPTNRPRP	-0.363
RRIRPRPPRLPRPRPRPTTGPRP	0.12
RRIRVRPPRLPRPRPRPRYPPRP	-0.294
RRIRCRPPRLPRPRPRPSYNPRP	-0.816
RRIRVRPPRLPRPRPRPNWKPRP	-0.0426
RRIRKRPPRLPRPRPRPVENPRP	0.198
RRIRSRPPRLPRPRPRPFRWPRP	0.119
RRIRHRPPRLPRPRPRPCVTPRP	-0.609
RRIRDRPPRLPRPRPRPYITPRP	-0.879
RRIRARPPRLPRPRPRPANYPRP	-0.122
RRIRPRPPRLPRPRPRPERPPRP	0.309
RRIRWRPPRLPRPRPRPWEPPRP	-0.0178
RRIRYRPPRLPRPRPRPKHIPRP	-0.66
RRIRMRPPRLPRPRPRPAHTPRP	0.709
RRIRDRPPRLPRPRPRPDMWPRP	0.0213

Sequence	shrunken log2 fold change
RRIRIRPPRLPRPRPRPGEFPRP	-0.0994
RRIRDRPPRLPRPRPRPDCVPRP	0.381
RRIRHRPPRLPRPRPRPLPKPRP	0.389
RRIRWRPPRLPRPRPRPIMKPRP	-0.0768
RRIRARPPRLPRPRPRPHSHPRP	0.144
RRIRMRPPRLPRPRPRPWQPPRP	-0.0454
RRIRTRPPRLPRPRPRPWFIPRP	-0.64
RRIRERPPRLPRPRPRPLANPRP	-0.225
RRIRARPPRLPRPRPRPERAPRP	0.845
RRIRWRPPRLPRPRPRPTHIPRP	-0.067
RRIRTRPPRLPRPRPRPKSCPRP	-0.0893
RRIRNRPPRLPRPRPRPVPDPRP	-0.0278
RRIRERPPRLPRPRPRPVYNPRP	-0.0493
RRIRDRPPRLPRPRPRPHDVPRP	-0.00973
RRIRKRPPRLPRPRPRPRWGPRP	0.358
RRIRHRPPRLPRPRPRPDLLPRP	-0.0324
RRIRKRPPRLPRPRPRPLICPRP	0.123
RRIRERPPRLPRPRPRPVGGPRP	0.21
RRIRRRPPRLPRPRPRPSGMPRP	-0.0586
RRIRGRPPRLPRPRPRPTSDPRP	0.931
RRIRSRPPRLPRPRPRPDRAPRP	0.611
RRIRMRPPRLPRPRPRPSSTPRP	0.858
RRIRTRPPRLPRPRPRPFVHPRP	-0.138
RRIRKRPPRLPRPRPRPIYKPRP	-0.0701
RRIRARPPRLPRPRPRPMAWPRP	0.662

Sequence	shrunken log2 fold change
RRIRERPPRLPRPRPRPVYYPRP	0.0224
RRIRQRPPRLPRPRPRPNFVPRP	-0.0869
RRIRVRPPRLPRPRPRPLLVPRP	-0.101
RRIRRRPPRLPRPRPRPQHKPRP	0.0372
RRIRCRPPRLPRPRPRPPTTPRP	0.353
RRIRCRPPRLPRPRPRPYGNPRP	-0.277
RRIRPRPPRLPRPRPRPEDTPRP	0.174
RRIRGRPPRLPRPRPRPSVMPRP	0.107
RRIRARPPRLPRPRPRPQFTPRP	0.0535
RRIRDRPPRLPRPRPRPSQWPRP	-0.119
RRIRKRPPRLPRPRPRPIGRPRP	0.015
RRIRERPPRLPRPRPRPYFYPRP	-0.757
RRIRIRPPRLPRPRPRPLCMPRP	-0.964
RRIRERPPRLPRPRPRPMTDPRP	-0.131
RRIRPRPPRLPRPRPRPLFFPRP	0.0106
RRIRWRPPRLPRPRPRPLSPPRP	-0.097
RRIRCRPPRLPRPRPRPEKMPRP	0.0239
RRIRCRPPRLPRPRPRPTNKPRP	-0.0578
RRIRKRPPRLPRPRPRPWMKPRP	-0.0454
RRIRTRPPRLPRPRPRPCVFPRP	-0.215
RRIRKRPPRLPRPRPRPQAAPRP	0.451
RRIRNRPPRLPRPRPRPRRKPRP	0.0625
RRIRFRPPRLPRPRPRPTFGPRP	0.0623
RRIRTRPPRLPRPRPRPSICPRP	-0.899
RRIRSRPPRLPRPRPRPGIVPRP	0.119

Sequence	shrunken log2 fold change
RRIRPRPPRLPRPRPRPFDGPRP	-0.214
RRIRMRPPRLPRPRPRPWHGPRP	-0.0653
RRIRFRPPRLPRPRPRPDQQPRP	-0.078
RRIRVRPPRLPRPRPRPKENPRP	0.184
RRIRKRPPRLPRPRPRPWLEPRP	-0.00226
RRIRCRPPRLPRPRPRPCMAPRP	-0.427
RRIRGRPPRLPRPRPRPGRRPRP	0.849
RRIRMRPPRLPRPRPRPHSPPRP	-0.114
RRIRTRPPRLPRPRPRPYTPPRP	-0.34
RRIRTRPPRLPRPRPRPHMNPRP	-0.547
RRIRQRPPRLPRPRPRPIMHPRP	-0.172
RRIRFRPPRLPRPRPRPFYMPRP	-0.317
RRIRLRPPRLPRPRPRPSDSPRP	-0.498
RRIRYRPPRLPRPRPRPARAPRP	0.524
RRIRTRPPRLPRPRPRPQEKPRP	-0.0148
RRIRRRPPRLPRPRPRPVMRPRP	0.714
RRIRLRPPRLPRPRPRPRMTPRP	0.206
RRIRPRPPRLPRPRPRPREVPRP	0.419
RRIRHRPPRLPRPRPRPMKQPRP	-0.0525
RRIRYRPPRLPRPRPRPIYTPRP	-0.943
RRIRRRPPRLPRPRPRPREDPRP	0.811
RRIRGRPPRLPRPRPRPVALPRP	0.639
RRIRDRPPRLPRPRPRPEYAPRP	0.815
RRIRSRPPRLPRPRPRPLHCPRP	0.0547
RRIRSRPPRLPRPRPRPDKDPRP	-0.102

Sequence	shrunken log2 fold change
RRIRDRPPRLPRPRPRPWGHPRP	0.0208
RRIRNRPPRLPRPRPRPQMHPRP	-0.108
RRIRYRPPRLPRPRPRPTYHPRP	-0.663
RRIRGRPPRLPRPRPRPEHHPRP	0.262
RRIRERPPRLPRPRPRPIAYPRP	-0.0148
RRIRQRPPRLPRPRPRPKHHPRP	-0.391
RRIRQRPPRLPRPRPRPGHLPRP	-0.0699
RRIRKRPPRLPRPRPRPCLMPRP	-0.0503
RRIRVRPPRLPRPRPRPLQIPRP	-0.0888
RRIRDRPPRLPRPRPRPDDAPRP	0.365
RRIRCRPPRLPRPRPRPCEGPRP	0.0324
RRIRRRPPRLPRPRPRPPMTPRP	0.43
RRIRPRPPRLPRPRPRPPWPPRP	0.688
RRIRLRPPRLPRPRPRPPSSPRP	1.86
RRIRCRPPRLPRPRPRPMQMPRP	0.0279
RRIRTRPPRLPRPRPRPTIKPRP	-0.051
RRIRLRPPRLPRPRPRPFCHPRP	0.0449
RRIRARPPRLPRPRPRPCHLPRP	-0.171
RRIRHRPPRLPRPRPRPWFTPRP	-0.0018
RRIRERPPRLPRPRPRPFPDPRP	-0.00133
RRIRLRPPRLPRPRPRPFYHPRP	-0.821
RRIRDRPPRLPRPRPRPCKTPRP	-0.0377
RRIRNRPPRLPRPRPRPYFNPRP	-1.51
RRIRCRPPRLPRPRPRPNVFPRP	-0.24
RRIRRRPPRLPRPRPRPIFQPRP	0.303

Sequence	shrunken log2 fold change
RRIRPRPPRLPRPRPRPHFPPRP	-0.204
RRIRCRPPRLPRPRPRPQDQPRP	-0.101
RRIRVRPPRLPRPRPRPFRDPRP	-0.0207
RRIRRRPPRLPRPRPRPKNNPRP	-0.0641
RRIRNRPPRLPRPRPRPRTSPRP	-0.0838
RRIRVRPPRLPRPRPRPRDAPRP	0.422
RRIRSRPPRLPRPRPRPGLSPRP	0.245
RRIRRRPPRLPRPRPRPVWDPRP	0.246
RRIRYRPPRLPRPRPRPDSQPRP	-0.429
RRIRIRPPRLPRPRPRPNLMPRP	-0.377
RRIRLRPPRLPRPRPRPQMDPRP	-0.16
RRIRFRPPRLPRPRPRPNGNPRP	-0.377
RRIRHRPPRLPRPRPRPSFIPRP	-0.619
RRIRMRPPRLPRPRPRPVHCPRP	0.517
RRIRFRPPRLPRPRPRPDMFPRP	-0.0758
RRIRPRPPRLPRPRPRPTADPRP	0.407
RRIRQRPPRLPRPRPRPWQMPRP	-0.0417
RRIRWRPPRLPRPRPRPRHQPRP	-0.0137
RRIRQRPPRLPRPRPRPIMQPRP	-0.0377
RRIRWRPPRLPRPRPRPDRRPRP	-0.0279
RRIRFRPPRLPRPRPRPRWSPRP	0.112
RRIRTRPPRLPRPRPRPSKFPRP	-0.624
RRIRQRPPRLPRPRPRPEESPRP	0.0313
RRIRNRPPRLPRPRPRPHIEPRP	-0.195
RRIRIRPPRLPRPRPRPMSNPRP	0.115
